The source of these data is the RNAGym collection of RNA variant scans (doi:10.7554/elife.80360).

The labels stand for the following.
B1: Twister Ribozyme (parent)
chain: AACACUGCCAAUGCCGGUCCCAAGCCCGGAUAAAAGUGGAGGGGGCGG

In the data set the parent is B1. Put plainly: self-cleavage, relative activity (ratio to wild type); higher = more cleavage; co-transcriptional.
For the variant U37A G44U, the self-cleavage was 0.755.
The figure for C9A G36U is 0.0953; for A1U G47U it is 0.0673; for G7U G41A it is 0.0662.
For the variant A2G G28A, the self-cleavage turned out to be 0.269.
To A30U G39C belongs 0.185; to C19G A35G, 0.0996.
In the case of C3U G43U, the self-cleavage worked out at 0.0863.
The figure for A22G C27U is 0.111.
Turning to G7C G44C, the self-cleavage is 0.0685.
Regarding A11C C20A, the self-cleavage was 0.129.
The figure for A30G G48C is 1.13.
The figure for U6G C21G is 0.116.
Regarding G41C G48U, the self-cleavage turned out to be 0.288.
To C19U C21A belongs 0.0697; to G36A C46G, 0.7.
The figure for C27G G28A is 0.0984; for A4G G36C it is 0.182.
To C5G A33G belongs 0.637.
As to C9U C20A, the self-cleavage worked out at 0.0526.
The figure for C15U A40U is 0.15.
As for G13U G42A, the self-cleavage was 0.139.
With U12C G41A, the self-cleavage amounted to 0.577.
To G41A G48A belongs 0.332; to C26U U31A, 0.432.
Turning to U18G U31A, the self-cleavage was determined as 0.0937.
The figure for C3A G28U is 0.144; for A2U G38C it is 0.252; for U6A A11C it is 0.61.
A23G A34G: the self-cleavage was determined as 0.112.
To G13U A22U belongs 0.174; to A10U A23U, 0.632.
To A23C A40U belongs 0.146.
Take A23C A40G: the self-cleavage is 0.128.
Take A23C G42C: the self-cleavage worked out at 0.156.
The figure for C21U G44A is 0.126; for G45U C46U it is 0.669; for A4C G45A it is 0.145.
The figure for G7U G36A is 0.0763; for G39A A40G it is 0.145.
The figure for U12G A32U is 0.958; for G36A G44U it is 0.791.
For U18G C25U, the self-cleavage is 0.085.
To C15G C20U belongs 0.0686.
For the variant G17C G36U, the self-cleavage was 0.0484.
Regarding A4G A33G, the self-cleavage came out at 0.941.
The figure for U6G G28U is 0.0702; for G38C G42U it is 0.183; for G24A G39C it is 0.0986.
The figure for U12G C20G is 0.249; for A10U C26U it is 0.437.
Regarding C25A G36U, the self-cleavage was 0.0554.
To G24U G28U belongs 0.0893; to C3U G13U, 0.113; to G28A G38A, 0.821.
The figure for G7C U31A is 0.0718; for G28C G45C it is 0.155; for C19U G38U it is 0.36.
To C25G G28C belongs 0.0925.
For G29A G36C, the self-cleavage was found to be 0.246.
For A10G G38C, the self-cleavage is 0.93.
Consider A22G G24U, for which the self-cleavage was found to be 0.0699.
The figure for A32C G47U is 0.783; for A4U C21A it is 0.0381; for C20U A33C it is 0.894.
To G24C G36A belongs 0.115; to C14A G47U, 0.66; to C5A A22G, 0.0856.
On to A1G A23U, for which the self-cleavage is 0.296.
To C15U C21U belongs 0.101; to A40C G41A, 0.115.
The figure for U18A A35C is 0.445.
To U18A A35G belongs 0.123; to U18A A35U, 0.624.
As to U6G G47C, the self-cleavage was determined as 0.179.
The figure for A2C G42A is 0.0532; for U6A G48C it is 0.84; for G13U A35G it is 0.127.
The figure for A11G U37G is 0.494; for C20U C26G it is 0.0973.
The figure for C26A C27U is 0.0741; for C26U G44A it is 0.537.
As for C3G G13C, the self-cleavage came out at 0.124.
As for C5U G38A, the self-cleavage was determined as 0.695.
In the case of A2G C15U, the self-cleavage was 0.503.
The figure for C3U G38A is 0.396; for G28C A33G it is 0.83.
To A35U C46A belongs 1.04; to A10C U18G, 0.0601; to A22C G45U, 0.946.
The figure for G13A G29C is 0.692.
As for A22U A35U, the self-cleavage was 0.659.
To U31G A35U belongs 1.01; to C5G U6C, 0.16.
The figure for C20A C21U is 0.0931; for G17A A30C it is 0.275.
The figure for A11G U31A is 0.348; for C3G A4U it is 0.13.
As to G29A G43A, the self-cleavage was found to be 0.195.
The figure for G29A G43C is 0.163.
The figure for A4U C20A is 0.0537; for A1C U12C it is 0.144; for C21G it is 0.0865.
To C26U G39A belongs 0.118; to A1U C46U, 0.0668; to A2U C9A, 0.0899.
Take A32U A34C: the self-cleavage was determined as 0.231.
To C8A G13C belongs 0.0783; to C3G U18A, 0.116; to A1C A40C, 0.186.
To A4U A23C belongs 0.0467; to C3U A4U, 0.12.
To A10C G17A belongs 0.391.
For the variant C5U G45U, the self-cleavage turned out to be 0.423.
The figure for C3A G24C is 0.0654; for A34C G44A it is 0.385; for A2C C9U it is 0.0433.
Turning to G29U G44U, the self-cleavage turned out to be 0.837.
Consider C15A A40G, for which the self-cleavage was 0.107.
The figure for A1C G48U is 0.212; for G24C G47U it is 0.0811; for C21U G28A it is 0.102.
The figure for A1G G13A is 0.383; for G7C G48U it is 0.0851.
To G24C C26U belongs 0.126.
For the variant A2C A10U, the self-cleavage is 0.0864.
The figure for G7C G39U is 0.058; for A11U C46G it is 0.978; for A10C U37G it is 0.692.
To A10C U37A belongs 0.881.
To C5A G41C belongs 0.0838; to A4U C5A, 0.0794; to U31G A32G, 0.836.
In the case of A2C C46A, the self-cleavage was found to be 0.0436.
To C21U G47C belongs 0.0939; to G42C G44U, 0.162.
To C9U C26G belongs 0.0629.
The figure for G29U G39U is 0.223.
Take A22G G38A: the self-cleavage is 0.106.
To C14A G45A belongs 0.801; to G16C A34U, 0.207.
The figure for G17C G48A is 0.133; for G29U A40C it is 0.208; for C9U U18G it is 0.059.
The figure for U12G G41U is 0.783; for U12C G36A it is 0.679.
A4G A34G: the self-cleavage came to 0.61.
On to C21A G39A, for which the self-cleavage is 0.0763.
To C3G G41U belongs 0.142; to A2G A4G, 0.212; to A1G A10C, 0.532.
To U6C G41U belongs 0.113; to U6C G41C, 0.13.
To U18G G24C belongs 0.117.
On to C5A C9A, for which the self-cleavage was found to be 0.123.
The figure for G36C C46G is 0.45; for G16U A30G it is 0.761; for A4U A10U it is 0.0773.
To G42A C46G belongs 0.232; to U6C C25A, 0.108; to U6G G41A, 0.156.
As for C46A G47A, the self-cleavage turned out to be 1.03.
Take A11U U37A: the self-cleavage is 1.01.
To A34U U37C belongs 0.155; to C9A A23C, 0.0979; to C21U C25U, 0.0856.
To C15U G41U belongs 0.452.
